US20180127493A1

Experiments:
[1] = molecular target: recombinant human VEGF165 (PeproTech EC Ltd.) (human) (UniProt P15692); test: SPR, BIAcore T100, hVEGF165 amine-coupled on CM4 chip, scFv as analyte
[2] = molecular target: VEGF (as used in the VEGFR competition ELISA); test: competition ELISA, VEGF binding to hVEGFR1; ratio to reference Luc
[3] = molecular target: Human TNFα N-his trimers (human) (UniProt P01375); test: SPR, BIAcore T100, His-tagged human TNFα trimers captured on NTA chip, scFv as analyte
Sequence of Human TNFα N-his trimers (human) (P01375 77-233 limits assumed): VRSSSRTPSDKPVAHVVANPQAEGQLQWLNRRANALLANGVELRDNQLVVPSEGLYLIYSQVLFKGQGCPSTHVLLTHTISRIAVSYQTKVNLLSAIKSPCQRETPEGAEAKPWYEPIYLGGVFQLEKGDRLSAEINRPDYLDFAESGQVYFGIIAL

Sequence of recombinant human VEGF165 (PeproTech EC Ltd.) (human) (P15692 other isoform, or with tags, fused parts or gaps limits assumed): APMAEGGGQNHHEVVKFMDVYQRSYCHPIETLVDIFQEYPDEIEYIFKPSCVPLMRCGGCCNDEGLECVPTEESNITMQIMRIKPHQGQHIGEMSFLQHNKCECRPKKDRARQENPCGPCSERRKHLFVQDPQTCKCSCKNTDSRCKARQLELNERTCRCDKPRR
Sequence of VEGF (as used in the VEGFR competition ELISA) (P15692 whole entry): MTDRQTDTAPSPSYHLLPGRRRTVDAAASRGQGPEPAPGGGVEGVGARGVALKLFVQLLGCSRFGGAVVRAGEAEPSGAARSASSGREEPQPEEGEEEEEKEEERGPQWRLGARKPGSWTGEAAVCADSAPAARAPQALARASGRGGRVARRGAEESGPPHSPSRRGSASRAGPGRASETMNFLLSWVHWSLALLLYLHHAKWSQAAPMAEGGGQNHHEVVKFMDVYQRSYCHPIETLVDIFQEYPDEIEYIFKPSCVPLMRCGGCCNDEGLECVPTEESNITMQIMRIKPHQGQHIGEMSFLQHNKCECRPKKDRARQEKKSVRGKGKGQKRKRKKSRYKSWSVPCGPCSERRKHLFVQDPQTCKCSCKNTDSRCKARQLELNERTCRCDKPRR

B1: 578-max (scFv, from a related filing, part only)
scFv: EIVMTQSPSTLSASVGDRVIITCQASEIIHSWLAWYQQKPGKAPKLLIYLASTLASGVPSRFSGSGSGTQFTLTISSLQPDDFATYYCQNVYLASTNGANFGQGTKLTVLGGGGGSGGGGSGGGGSGGGGSEVQLVESGGGLVQPGGSLRLSCTASGFSLTDYYYMTWVRQAPGKGLEWVGFIDPDDDPYYATWAKGRFTISRDTSKNTVYLQMNSLRAEDTAVYYCAGGDHNSGWGLDIWGQGTLVTVSS
Which results are given for B1?
Kd [1]: 0.439 nM; koff [1]: 0.000307 s⁻¹; kon [1]: 700000 M⁻¹ s⁻¹

B2: 511-max (scFv, from a related filing, part only)
scFv: EIVMTQSPSTLSASVGDRVIITCQASQSINIWLSWYQQKPGKAPKLLIYRASTLASGVPSRFSGSGSGTEFTLTISSLQPDDFATYYCQANYAYSAGYGAAFGQGTKLTVLGGGGGSGGGGSGGGGSGGGGSEVQLVESGGGLVQPGGSLRLSCTVSGFSLNTYYMNWVRQAPGKGLEWVGIIAPDDTTYYASWAKSRSTISRDTSKNTVYLQMNSLRAEDTAVYYCARSGDTTAWGADIWGQGTLVTVSS
With B2 as the binder, how does the Rel. activity hVEGR1 comp. ELISA (EC50Luc [nM]/EC50test [nM]) [2] read?
The Rel. activity hVEGR1 comp. ELISA (EC50Luc [nM]/EC50test [nM]) was 8.

And the Kd [1]?
Its Kd is 0.0667 nM.

What about the koff [1] of the same binder?
Its koff is 4.4e-05 s⁻¹.

What about the kon [1] of the same binder?
The kon was 659000 M⁻¹ s⁻¹.

B3: EP43_min (scFv)
scFv: EIVMTQSPSTLSASVGDRVIITCQASQSISDWLAWYQQKPGKAPKLLIYGASRLASGVPSRFSGSGSGAEFTLTISSLQPDDFATYYCQQGWSDSYVDNLFGQGTKLTVLGGGGGSGGGGSGGGGSGGGGSEVQLVESGGGLVQPGGSLRLSCAASGFSLSSGAMSWVRQAPGKGLEWVSVIISSGATYYASWAKGRFTISRDNSKNTLYLQMNSLRAEDTAVYYCAKGGPDDSNSMGTFDPWGQGTLVTVSS
With B3 as the binder, how does the Kd [3] read?
The Kd was 5.54 µM.
